# Positions count from the first letter of the chain named. Where no end group is shown, it is not given here.
# T1: cyno CD137-Fc (cynomolgus monkey; human, limits assumed, biotin-labeled)
# T1 construct: whole entry 92 named; also called biotin-labeled cynomolgus monkey CD137 fused to human IgG1 Fc fragment; not shown: human IgG1 Fc fragment
# T1 chain: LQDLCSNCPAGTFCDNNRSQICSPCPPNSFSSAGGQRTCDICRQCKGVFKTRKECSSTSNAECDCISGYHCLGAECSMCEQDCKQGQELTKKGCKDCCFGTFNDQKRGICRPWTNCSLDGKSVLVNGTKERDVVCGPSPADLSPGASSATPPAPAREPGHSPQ
# T2: cyno CD137 (cynomolgus monkey, UniProt Q07011 24-186 (human entry), limits assumed)
# T2 construct: also called cynomolgus monkey CD137
# T2 chain: T1 chain
# T3: Biotin-labeled CD3 epsilon peptide antigen (human, also: biotin-labeled, site not given here)
# T3 construct: also called CD3 peptide
# T3 peptide: QDGNEEMGGITQTPY
# B1: anti-human CD137 antibody described in WO2005/035584A1 (abbreviated as B) (antibody, V domains shown)
# VH: QVQLQQWGAGLLKPSETLSLTCAVYGGSFSGYYWSWIRQSPEKGLEWIGEINHGGYVTYNPSLESRVTISVDTSKNQFSLKLSSVTAADTAVYYCARDYGPGNYDWYFDLWGRGTLVTVSS
# VL: EIVLTQSPATLSLSPGERATLSCRASQSVSSYLAWYQQKPGQAPRLLIYDASNRATGIPARFSGSGSGTDFTLTISSLEPEDFAVYYCQQRSNWPPALTFGGGTKVEIK
# notes: Control antibody; also called control anti-CD137 antibody
# B2: DADU01_3#002 (antibody, V domains shown)
# VH: QVQLVESGGGLVQPGRSLRLSCAASGFTFSNAWMHWVRQAPGKGLEWVAQIKDKQNLYNAYYAESVKGRFTISRDDSKNSIYLQMNSLKTEDTAVYYCHYVHYASASTVLPAFGVDAWGQGTTVTVSS
# VL: DIVMTQSPLSLPVTPGEPASISCRSSQSLVHSNRNTYLHWYQQKPGQAPRLLIYKVSNRFSGVPDRFSGSGSGTDFTLKISRVEAEDVGVYYCGQGTQVPYTFGQGTKLEIK
# notes: Human IgG1; light chain GLS3000 (kappa); also called dBBDu124
# B3: DXDU01_3#051 (antibody, V domains shown)
# VH: B2 VH with K54R, Q55G, N56Q, L57Q, E64P, T108S, A112G, F113Y
# VL: B2 VL
# notes: Human IgG1; light chain GLS3000 (kappa); also called dBBDu127
# B4: DXDU01_3#019 (antibody, V domains shown)
# VH: QVQLVESGGGLVQPGRSLRLSCAASGFTFSIAWMHWVRQAPGKGLEWVAQIKDKVNGYTAYYAESVKGRFTISRDDSKNSIYLQMNSLKTEDTAVYYCRYVHYAAYYDVLGYGGVDAWGQGTTVTVSS
# VL: B2 VL
# notes: Human IgG1; light chain GLS3000 (kappa); also called dBBDu125
# B5: DADU01_3#018 (antibody, V domains shown)
# VH: B2 VH with K54R, Q55A, L57S, E64P, A104S, S105A, V109L, A112S
# VL: B2 VL
# notes: Human IgG1; light chain GLS3000 (kappa); also called dBBDu123
# B6: dBBDu186/L098 (antibody, V domains shown)
# VH: B2 VH with K54R, Q55S, L57Q, N59A, A60T, E64P, S105Q
# VL: DIVMTQSPLSLPVTPGEPASISCAASEELVHINRYIFLHWYQQKPGQAPRLLIYKVSNRFIGVPDRFSGSGSGTDFTLKISRVEAEDVGVYYCAQGSQVPFTFGQGTKLEIK
# notes: IgG format; constant regions not specified
# B7: dBBDu193/L132 (antibody, V domains shown)
# VH: B2 VH with K54R, Q55S, L57Q, N59A, A60T, E64P, A104S, S105A, V109L, A112S
# VL: B6 VL with A24Q, A25T, Y35F, I61S, S97T, Q98S
# notes: IgG format; constant regions not specified; also called dBBDu_193 dBBDu.L132
# B8: dBBDu189/L126 (antibody, V domains shown)
# VH: QVQLVESGGGLVQPGRSLRLSCAASGFTFSNAWMHWVRQAPGKGLEWIAQIKDRSNQYATYYAPSVKGRFTISRDDSKNSIYLQMNSLKTEDTAVYYCHYVHYAQASSLLPSFGVDAWGQGTTVTVSS
# VL: B6 VL with A24R, A25T, V30L, S57Q, I61S, Q98A
# notes: as for B6
# B9: dBBDu186/L106 (antibody, V domains shown)
# VH: B8 VH with I48V, S108T, L109V, S112A
# VL: B6 VL with A24S, A25T, V30L, Y35F, S57A, I61M
# notes: as for B6
# B10: dBBDu167/L094 (antibody, V domains shown)
# VH: B2 VH with Q55G, N59A, E64P, S107G, T108G, V109G, A112G
# VL: B6 VL with A24Y, V30L, Y35H, F37Y, S57Y, I61N, Q98S
# notes: IgG format; constant regions not specified; also called dBBDu_167 dBBDu.L094
# B11: dBBDu189/L119 (antibody, V domains shown)
# VH: B8 VH
# VL: B6 VL with A24T, E27Q, Y35F
# notes: as for B6
# B12: dBBDu186/L100 (antibody, V domains shown)
# VH: B8 VH with I48V, S108T, L109V, S112A
# VL: B6 VL with A24S, S57Y, I61M, A94G, Q98S
# notes: as for B6
# B13: dBBDu193/L127 (antibody, V domains shown)
# VH: B8 VH with I48V, A104S, Q105A, S108T
# VL: B6 VL with A24R, V30L, Y35H, S57Y, I61T, S97T, Q98S
# notes: IgG format; constant regions not specified; also called dBBDu_193 dBBDu.L127
# B14: dBBDu186/L108 (antibody, V domains shown)
# VH: B8 VH with I48V, S108T, L109V, S112A
# VL: B6 VL with A24R, A25T, V30L, Y35F, I36T, I61M, Q98A
# notes: as for B6
# Molecular target: T4, human CD137-Fc (human, biotin-labeled)
# T4 construct: if 90 already holds the Fc, drop the second piece; also called biotin-labeled human CD137 fused to human IgG1 Fc fragment; biotin-human CD137-Fc; not shown: human IgG1 Fc fragment
# Assay: bead ELISA on biotin-human CD137-Fc with 62.5 pmol free CD3e peptide as competitor
row,ELISA signal,Binder
1,183000,B1
2,9970,B2
3,10800,B3
4,12800,B4
5,9020,B5

# Molecular target: T4, human CD137-Fc
# Assay: bead ELISA on biotin-human CD137-Fc, free CD3e peptide vs free Fc
row,Signal decrease [%],Binder
1,0.94,B1
2,93.6,B2
3,91.6,B3
4,92.5,B4
5,92.3,B5

# Molecular target: T1, cyno CD137-Fc
# Assay: bead ELISA, IgG on biotinylated antigen, luminescence;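 also: biotinylated antigen captured on streptavidin magnetic beads, then incubated with purified IgG at 50 ng/µL for 1 h at room temperature before detection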
RLU [RLU],S/N ratio (cyno CD137-Fc/Fc),Binder
10800,5.6,B2
10900,3.73,B3
5090,1.56,B4
6200,3.27,B5

# Molecular target: T4, human CD137-Fc
# Assay: as above
RLU [RLU],S/N ratio (human CD137-Fc/Fc),Binder
39100,20.3,B2
38100,13.1,B3
77800,23.8,B4
32800,17.3,B5

# Molecular target: T5, biotin-labeled human CD137 fused to human IgG1 Fc fragment (human, biotin-labeled)
# T5 construct: also called human CD137-Fc; biotin-human CD137-Fc; not shown: human IgG1 Fc fragment
# Assay: competitive ELISA on biotin-human CD137-Fc; free Fc 62.5 pmol (control)
row,ELISA signal,Binder
1,115000,B6
2,116000,B7
3,75100,B8
4,9860,B9
5,141000,B10
6,88100,B11
7,102000,B12
8,6080,B13
9,83600,B14

# Molecular target: T5, biotin-labeled human CD137 fused to …
# Assay: competitive ELISA on biotin-human CD137-Fc; free CD3e vs free Fc
row,Signal decrease [%],Binder
1,86.2,B6
2,91,B7
3,87,B8
4,68.7,B9
5,96.9,B10
6,76.9,B11
7,13,B12
8,59.4,B13
9,39.2,B14

# Molecular target: T5, biotin-labeled human CD137 fused to …
# Assay: competitive ELISA on biotin-human CD137-Fc; competitor free CD3e 62.5 pmol
row,ELISA signal,Binder
1,15900,B6
2,10400,B7
3,9750,B8
4,3090,B9
5,4370,B10
6,20400,B11
7,88900,B12
8,2470,B13
9,50800,B14

# Molecular target: T4, human CD137-Fc
# Assay: bead ELISA on biotin-human CD137-Fc with 62.5 pmol free human Fc (control competitor)
row,ELISA signal,Binder
1,184000,B1
2,155000,B2
3,128000,B3
4,172000,B4
5,117000,B5

# Molecular target: T2, cyno CD137
# Assay: SPR Biacore T200, IgG captured on protein A, 25 C;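 also: antigens diluted in ACES running buffer at pH 7.4 were flowed over antibodies held on a CM3 chip bearing amine-coupled protein A, with buffer alone serving as blank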
Kd [µM],koff [s⁻¹],kon [M⁻¹ s⁻¹],Binder
134,0.00119,,B6
757,0.0061,,B7
3.06,0.00247,807,B8
61.3,0.00126,,B9
6.92,0.0748,10800,B10
35.7,0.00122,,B11
70.4,0.00208,,B12
28.1,0.00316,112,B13
16.1,0.00361,225,B14

# Molecular target: human CD137 (human, UniProt Q07011 24-186)
# Assay: SPR Biacore T200, IgG captured on protein A, 25 C;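 also: antigens diluted in ACES running buffer at pH 7.4 were flowed over antibodies held on a CM3 chip bearing amine-coupled protein A, with buffer alone serving as blank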
Kd [µM],koff [s⁻¹],kon [M⁻¹ s⁻¹],Binder
2.31,0.000534,231,B6
4.48,0.00211,471,B7
0.513,0.000688,1340,B8
3.44,0.000447,130,B9
8.43,0.0102,1210,B10
2.71,0.000402,148,B11
1.91,0.000746,391,B12
3.3,0.00145,440,B13
2.41,0.00081,335,B14

# Molecular target: human CD3 ed (human, UniProt P07766 23-126; P04234 22-105, limits assumed)
# Assay: SPR Biacore T200, IgG captured on protein A, 25 C;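 also: antigens diluted in ACES running buffer at pH 7.4 were flowed over antibodies held on a CM3 chip bearing amine-coupled protein A, with buffer alone serving as blank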
Kd [µM],koff [s⁻¹],kon [M⁻¹ s⁻¹],Binder
1.88,0.0209,11100,B6
2.03,0.0201,9890,B7
2.57,0.0281,10900,B8
3.09,0.0318,10300,B9
0.349,0.021,60200,B10
2.06,0.0258,12500,B11
3.36,0.0546,16200,B12
1.51,0.0191,12600,B13
3.01,0.0408,13600,B14

# Molecular target: T4, human CD137-Fc
# Assay: bead ELISA on biotin-human CD137-Fc with 125 pmol/well free CD3e peptide as competitor;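 also: Streptavidin-coated magnetic beads in blocking buffer as the capture surface, well signal read as fluorescence 2 min after adding APS-5 substrate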
row,ELISA signal,Binder
1,98100,B1
2,2120,B2
3,2200,B3
4,2060,B4
5,1840,B5

# Molecular target: T4, human CD137-Fc
# Assay: bead ELISA on biotin-human CD137-Fc, 0 pmol free CD3e peptide
row,ELISA signal,Binder
1,99400,B1
2,6620,B2
3,3230,B3
4,61400,B4
5,2750,B5

# Molecular target: T4, human CD137-Fc
# Assay: bead ELISA on biotin-human CD137-Fc, 125 vs 0 pmol free CD3e peptide;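 also: target captured on streptavidin-coated magnetic beads, signal read as fluorescence 2 min after adding APS-5 substrate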
row,Signal decrease [%],Binder
1,1.26,B1
2,68,B2
3,32,B3
4,96.7,B4
5,33,B5

# Molecular target: T3, Biotin-labeled CD3 epsilon peptide …
# Assay: bead ELISA, IgG on biotinylated CD3 epsilon peptide, luminescence
RLU [RLU],S/N ratio (CD3 peptide/non coating),Binder
174000,156,B2
169000,145,B3
191000,161,B4
182000,149,B5

# From patent US20210388087A1 (Chugai, published 2021)
